Measured values taken from the RNAGym collection of RNA variant scans (doi:10.1021/acssynbio.7b00057).

B1: Pistol ribozyme (parent)
chain: GGGUCGUUGUUCCAUAAUCGCGUGGAUAUGGCACGCAAGUUUCUACCGGGCACCGUAAAUGUCCGACUGGAGCCGUUCGGGCGGCUAUAAACAGACCUCAGGCCCGAAGCGUGGCGGCACCUGCCGCCGGUGGUAAAAAAGAUCGGAAGAGCACACGUCU

Variants of: B1
Assay: aptazyme ON/OFF ratio, guanine; higher = stronger switching; co-transcriptional cleavage with and without guanine

**Q.** With GGGUCGAACCACAAUAAUCGCGUGGAUAUGGCACGCAAGUUUCUACCGGGCACCGUAAAUGUCCGACUGGAGCCGUUCGGGCGGCUAUAAACAGACCUCAGGCCCGAAGCGUGGCGGCACCUGCCGCCGGUGGUAAAAAAGAUCGGAAGAGCACACGUCU [U7A U8A G9C U10C U11A C13A] as the variant, how does the “aptazyme ON/OFF ratio” value read?
**A.** The value was 1.14.

**Q.** With GGGUCGGCCUUAAAUAAUCGCGUGGAUAUGGCACGCAAGUUUCUACCGGGCACCGUAAAUGUCCGACUGGAGCCGUUCGGGCGGCUAUAAACAGACCUCAGGCCCGAAGCGUGGCGGCACCUGCCGCCGGUGGUAAAAAAGAUCGGAAGAGCACACGUCU [U7G U8C G9C C12A C13A] as the variant, how does the “aptazyme ON/OFF ratio” value read?
**A.** The value was 1.15.

**Q.** Which “aptazyme ON/OFF ratio” value does the source give for GGGUCGUUUACGUAUAAUCGCGUGGAUAUGGCACGCAAGUUUCUACCGGGCACCGUAAAUGUCCGACUGGAGCCGUUCGGGCGGCUAUAAACAGACCUCAGGCCCGAAGCGUGGCGGCACCUGCCGCCGGUGGUAAAAAAGAUCGGAAGAGCACACGUCU [G9U U10A U11C C12G C13U] here?
**A.** Its value is 1.47.

**Q.** For GGGUCGCUGACCGAUAAUCGCGUGGAUAUGGCACGCAAGUUUCUACCGGGCACCGUAAAUGUCCGACUGGAGCCGUUCGGGCGGCUAUAAACAGACCUCAGGCCCGAAGCGUGGCGGCACCUGCCGCCGGUGGUAAAAAAGAUCGGAAGAGCACACGUCU [U7C U10A U11C C13G], which “aptazyme ON/OFF ratio” value is on record?
**A.** Its value is 1.01.

**Q.** For GGGUCGAUAGUAAAUAAUCGCGUGGAUAUGGCACGCAAGUUUCUACCGGGCACCGUAAAUGUCCGACUGGAGCCGUUCGGGCGGCUAUAAACAGACCUCAGGCCCGAAGCGUGGCGGCACCUGCCGCCGGUGGUAAAAAAGAUCGGAAGAGCACACGUCU [U7A G9A U10G C12A C13A], which “aptazyme ON/OFF ratio” value is on record?
**A.** The value was 1.17.

**Q.** For GGGUCGCGUAAUGAUAAUCGCGUGGAUAUGGCACGCAAGUUUCUACCGGGCACCGUAAAUGUCCGACUGGAGCCGUUCGGGCGGCUAUAAACAGACCUCAGGCCCGAAGCGUGGCGGCACCUGCCGCCGGUGGUAAAAAAGAUCGGAAGAGCACACGUCU [U7C U8G G9U U10A U11A C12U C13G], which “aptazyme ON/OFF ratio” value is on record?
**A.** Its value is 1.08.

**Q.** For GGGUCGCACGACAAUAAUCGCGUGGAUAUGGCACGCAAGUUUCUACCGGGCACCGUAAAUGUCCGACUGGAGCCGUUCGGGCGGCUAUAAACAGACCUCAGGCCCGAAGCGUGGCGGCACCUGCCGCCGGUGGUAAAAAAGAUCGGAAGAGCACACGUCU [U7C U8A G9C U10G U11A C13A], which “aptazyme ON/OFF ratio” value is on record?
**A.** Its value is 1.08.

**Q.** Which “aptazyme ON/OFF ratio” value does the source give for GGGUCGUUAUGCGAUAAUCGCGUGGAUAUGGCACGCAAGUUUCUACCGGGCACCGUAAAUGUCCGACUGGAGCCGUUCGGGCGGCUAUAAACAGACCUCAGGCCCGAAGCGUGGCGGCACCUGCCGCCGGUGGUAAAAAAGAUCGGAAGAGCACACGUCU [G9A U11G C13G] here?
**A.** Its value is 1.1.

**Q.** Which “aptazyme ON/OFF ratio” value does the source give for GGGUCGUACAUUAAUAAUCGCGUGGAUAUGGCACGCAAGUUUCUACCGGGCACCGUAAAUGUCCGACUGGAGCCGUUCGGGCGGCUAUAAACAGACCUCAGGCCCGAAGCGUGGCGGCACCUGCCGCCGGUGGUAAAAAAGAUCGGAAGAGCACACGUCU [U8A G9C U10A C12U C13A] here?
**A.** The value was 1.09.

**Q.** With GGGUCGAGAACUCAUAAUCGCGUGGAUAUGGCACGCAAGUUUCUACCGGGCACCGUAAAUGUCCGACUGGAGCCGUUCGGGCGGCUAUAAACAGACCUCAGGCCCGAAGCGUGGCGGCACCUGCCGCCGGUGGUAAAAAAGAUCGGAAGAGCACACGUCU [U7A U8G G9A U10A U11C C12U] as the variant, how does the “aptazyme ON/OFF ratio” value read?
**A.** The value was 1.04.

**Q.** With GGGUCGUCAGUGCAUAAUCGCGUGGAUAUGGCACGCAAGUUUCUACCGGGCACCGUAAAUGUCCGACUGGAGCCGUUCGGGCGGCUAUAAACAGACCUCAGGCCCGAAGCGUGGCGGCACCUGCCGCCGGUGGUAAAAAAGAUCGGAAGAGCACACGUCU [U8C G9A U10G C12G] as the variant, how does the “aptazyme ON/OFF ratio” value read?
**A.** The value was 1.15.

**Q.** For GGGUCGCUUCUUGAUAAUCGCGUGGAUAUGGCACGCAAGUUUCUACCGGGCACCGUAAAUGUCCGACUGGAGCCGUUCGGGCGGCUAUAAACAGACCUCAGGCCCGAAGCGUGGCGGCACCUGCCGCCGGUGGUAAAAAAGAUCGGAAGAGCACACGUCU [U7C G9U U10C C12U C13G], which “aptazyme ON/OFF ratio” value is on record?
**A.** The value was 1.05.

**Q.** With GGGUCGGCAUAGCAUAAUCGCGUGGAUAUGGCACGCAAGUUUCUACCGGGCACCGUAAAUGUCCGACUGGAGCCGUUCGGGCGGCUAUAAACAGACCUCAGGCCCGAAGCGUGGCGGCACCUGCCGCCGGUGGUAAAAAAGAUCGGAAGAGCACACGUCU [U7G U8C G9A U11A C12G] as the variant, how does the “aptazyme ON/OFF ratio” value read?
**A.** Its value is 1.1.

**Q.** With GGGUCGCGUGCAUAUAAUCGCGUGGAUAUGGCACGCAAGUUUCUACCGGGCACCGUAAAUGUCCGACUGGAGCCGUUCGGGCGGCUAUAAACAGACCUCAGGCCCGAAGCGUGGCGGCACCUGCCGCCGGUGGUAAAAAAGAUCGGAAGAGCACACGUCU [U7C U8G G9U U10G U11C C12A C13U] as the variant, how does the “aptazyme ON/OFF ratio” value read?
**A.** Its value is 1.15.

**Q.** For GGGUCGAAGGGCAAUAAUCGCGUGGAUAUGGCACGCAAGUUUCUACCGGGCACCGUAAAUGUCCGACUGGAGCCGUUCGGGCGGCUAUAAACAGACCUCAGGCCCGAAGCGUGGCGGCACCUGCCGCCGGUGGUAAAAAAGAUCGGAAGAGCACACGUCU [U7A U8A U10G U11G C13A], which “aptazyme ON/OFF ratio” value is on record?
**A.** Its value is 1.07.

**Q.** For GGGUCGUUAGCGCAUAAUCGCGUGGAUAUGGCACGCAAGUUUCUACCGGGCACCGUAAAUGUCCGACUGGAGCCGUUCGGGCGGCUAUAAACAGACCUCAGGCCCGAAGCGUGGCGGCACCUGCCGCCGGUGGUAAAAAAGAUCGGAAGAGCACACGUCU [G9A U10G U11C C12G], which “aptazyme ON/OFF ratio” value is on record?
**A.** Its value is 1.33.

**Q.** With GGGUCGCCUCCCCAUAAUCGCGUGGAUAUGGCACGCAAGUUUCUACCGGGCACCGUAAAUGUCCGACUGGAGCCGUUCGGGCGGCUAUAAACAGACCUCAGGCCCGAAGCGUGGCGGCACCUGCCGCCGGUGGUAAAAAAGAUCGGAAGAGCACACGUCU [U7C U8C G9U U10C U11C] as the variant, how does the “aptazyme ON/OFF ratio” value read?
**A.** Its value is 1.3.

**Q.** Which “aptazyme ON/OFF ratio” value does the source give for GGGUCGCUCAUGAAUAAUCGCGUGGAUAUGGCACGCAAGUUUCUACCGGGCACCGUAAAUGUCCGACUGGAGCCGUUCGGGCGGCUAUAAACAGACCUCAGGCCCGAAGCGUGGCGGCACCUGCCGCCGGUGGUAAAAAAGAUCGGAAGAGCACACGUCU [U7C G9C U10A C12G C13A] here?
**A.** Its value is 1.07.
